Laboratory results taken from patent publication US20250027068.
Changes are numbered by the printed parent chain.

B1: PRT-609 (protein)
chain: MQITSVWTKGVTPLTPEQFRYNNEDVIHAPYLAHQGWYDITKAFDRGDNLLCGAATAGNMLHWWFDQNKTEIEAYLSKHPEKQKIIFNNQELFDLKAAIDTKDSQTNSQLFNYFRDKAFPNLSARQGGVMPDLVLDMFINGYYLNVFKTQSTDVNRPYQDKDKRGGIFDAVFTRGDQTTLLTARHDLKNKGLNDISTIIKQELTEGRALALSHTYANVSISHVINLWGADFNAEGNLEAIYVTDSDADEKIGMKKYFVGINAHGHVAISAKKIEGENIGAQVLGLFTLSSGKDIWQKLSLEHHHHHH
B2: PRT-637 (protein)
chain: B1 chain with R46G, N49G, G127K, D248G, E249N, K250G
B3: PRT-687 (protein)
chain: MQITSVWTKGVTPLTPEQFRYNNEDVIHAPYKPHQGWYDITKTFNGKDNLLCGAATAGNMLHWWFDQNKTEIEAYLKKYPEKQKIIFNNQKLFDLRKAINTKDSQTNSALFNYFRDKAFPNLSARQLGVMPDLVLDMFINGYYLNVFKTQSTDVNRPYQTRDKRGGIFDHVFGRGDQTTLLTARHDLKNKTLNEISQIIKQELSEGKALALSHTYANVSISHVINLWGADFNAEGNLEAIYVTDSDANAKIGMKKYYVGKNAHGKVAISAKKIEGENIGAQVLGLFTLSSGKDIWQKLSLEHHHHHH
B4: PRT-643 (protein)
chain: MQITSVWTKGVTPLTPEQFRYNNEDVIHAPYLAHQGWYDITKAFDGKDNLLCGAATAGNMLHWWFDQNKTEIEAYLSKHPEKQKIIFNNQELFDLKAAIDTKDSQTNSQLFNYFRDKAFPNLSARQLGVMPDLVLDMFINGYYLNVFKTQSTDVNRPYQDKDKRGGIFDAVFTRGDQTTLLTARHDLKNKGLNDISTIIKQELTEGRALALSHTYANVSISHVINLWGADFNAEGNLEAIYVTDSDANASIGMKKYKVGYNKDGRVAISAYKIEGENIGAQVLGLFTLSSGKDIWQKLSLEHHHHHH
B5: PRT-623 (protein)
chain: MQITTVWTKGVTPLTPEQFRYNNEDVIHAPYLAHQGWYDITKAFDGKDNLLCGAATAGNMLHWWFDQNKTEIEAYLSKHPEKQKIIFNNQELFDLKAAIDTKDSQTNSQLFNYFRDKAFPNLSARQLGVMPDLVLDMFINGYYLNVFKTQSTDVNRPYQDKDKRGGIFDAVFTRGDQTTLLTARHDLKNGTLNEISQIIKQELQSGRALALSHTYANVSISHVINLWGADFNAEGNLIAIYVTDSDANASIGMKKYFVGINAHGHVAISAKKIEGENIGAQVLGLFTLSSGKDIWQKLSLEHHHHHH
B6: PRT-692 (protein)
chain: MQITSVWTKGVTPPTPEQFRYNNEDVIHAPYLPNQGWYDITKTFNGGDNLLCGAATAGNMLHWWFDQNKTEIEAYLSKYPEKQKIIFNNQELFDLRAAINSKDSQTNSQLFNYFRDKAFPNLSARQLGVMPDLVLDMFINGYYLNVFKTQSTDVNRPYQDPDKRGGIFDDVFKEGDQTTLLTARHDLKNGTLNDISTLIKQELQSGKALALSHTYANVSISHVINLWGADFNAEGNLEAIYVTDSDANQSIGMKKYKVGVNAHGKVAISAKKIEGENIGAQVLGLFTLSSGKEIWQKLSLEHHHHHH
B7: PRT-635 (protein)
chain: MQITSVWTKGVTPLTPDQFTNQGEDVIHAPYTPNQGWYDITKAFDGKDNLLCGAATAGNMLHWWFDQNKTEIEAYLSKHPEKQKIIFNNQELFDLKAAIDTKDSQTNSQLFNYFRDKAFPNLSARQLGVMPDLVLDMFINGYYLNVFKTQSTDVNRPYQDKDKRGGIFDAVFTRGDQTTLLTARHDLKNKGLNDISTIIKQELTEGKALALSHTYANVSISHVINLWGADFNAEGNLEAIYVTDSDANASIGMKKYFVGINAHGHVAISAKKIEGENIGAQVLGLFTLSSGKDIWQKLSLEHHHHHH
B8: PRT-549 (protein)
chain: MANQEIRYSEDTPSHITSVWTKGVTPPTQFIQNEDVLHAPYIANQGWYDITKTFNGKDDLLCGAATAGNMLHWWFDQNKEQIEAYLKKYPEKQKINFNGEQMFDVKEAIDTKDSQTDSALFNYFKDKAFPYLSTKHLGVFPDHVIDMFINGYRLSLTNHGPTPVKNQTKDPRGGIFDAVFTRGDQSKLLTARHDFKEKTLKEISQLIKQELTEGKALGLSHTYANVRINHVINLWGADFNAEGNLEAIYVTDSDSNASIGMKKYYVGVNAAGKVAISAKEIEGDNIGAQVLGLFTLSTGQDIWQQTNLEHHHHHH
B9: PRT-696 (protein)
chain: MTITSVWTKGVTPPTPEDFRYNNEDVLHAPYVPNQGWYDITKTFDGGDNLLCGAATAGNMLHWWFDQNKEEIERYLKKYPEKQKIIFNNQELFDVRAAINSKDSQTNSKLFNYFRDKAFPNLSARQLGVMPDLVLDMFINGYYLNLGKTQSTDVNRPYQDPDKRGGIFDDVFKEGDQTTLLTARHDLKNGGLNEISDLIKQELQSGKALALSHTYANVRINHVINLWGADFDAEGNLIAIYVTDSDANQSIGMKKYKVGVNANGKVAISAKKIEGDNIGAQVLGLFTLSTGQEIWQKLSLEHHHHHH
B10: PRT-624 (protein)
chain: MQITSVWTKGVTPLTPEQFRYNNEDVIHAPYLAHQGWYDITKAFDGKDNLLCGAATAGNMLHWWFDQNKTEIEAYLSKHPEKQKIIFNNQELFDLKAAIDTKDSQTNSQLFNYFRDKAFPNLSARQLGVMPDLVLDMFINGYYLNVFKTQSTDVNRDYDDKDKRGGIFDDVFGKGDQTTLLTARHDLKNKGLNDISTIIKQELTEGRALALSHTYANVSISHVINLWGADFNAEGNLEAIYVTDSDANASIGMKKYFVGINAHGHVAISAKKIEGENIGAQVLGLFTLSSGKDIWQKLSLEHHHHHH
B11: PRT-625 (protein)
chain: B10 chain with D157P, Y158E, D170H, G173T, K174R, T178S
B12: PRT-647 (protein)
chain: B10 chain with D157P, D159Q, D170A, G173T, K174R, A183N, H185Y, K188Y, N189D
B13: PRT-644 (protein)
chain: B4 chain with K257Y, Y260K, K262A, D263S, R265H, Y271K, G275D
B14: PRT-658 (protein)
chain: B10 chain with K96R, A97K, D100N, Q109A, D157P, D159Q, D170A, G173T, K174R
B15: PRT-646 (protein)
chain: B10 chain with D157P, D159Q, D170A, G173T, K174R, A183E, R184T, H185T, K188Y, N189G
B16: PRT-661 (protein)
chain: B10 chain with H34N, A43T, A97K, D157P, D159Q, D170A, G173T, K174R, A247S, H263A
B17: PRT-686 (protein)
chain: MQITSVWTKGVTPLTPEQFTYNNEDVIHAPYIANQGWYDITKTFNGKDNLLCGAATAGNMLHWWFDQNKTEIENYLKKHPEKQKIIFNNQELFDLRKAINTKDSQTNSALFNYFRDKAFPNLSARQLGVMPDLVLDMFINGYYLNVFKTQSTDVNRPYQTKDKRGGIFDHVFTRGDQSTLLTARHDLKNKTLNEISDIIKQELTEGKALALSHTYANVSISHVINLWGADFNAEGNLEAIYVTDSDANASIGMKKYFVGVNSHGKVAISAKKIEDENIGAQVLGLFTLSSGQDIWEQLSLEHHHHHH

Biological target: pooled human IgG (human IgG1, 2, 3 and 4)

Protein	Enzyme Activity Endpoint Assay (purified): Fab′2	Enzyme Activity Endpoint Assay (purified): Fc	Enzyme Activity Endpoint Assay (purified): IgG	Enzyme Activity Endpoint Assay (purified): scIgG
B1	460 ng/µL	216 ng/µL	702 ng/µL	726 ng/µL
B2	278 ng/µL	188 ng/µL	464 ng/µL	602 ng/µL
B3	738 ng/µL	420 ng/µL	0 ng/µL	295 ng/µL
B4	664 ng/µL	409 ng/µL	33 ng/µL	226 ng/µL
B5	433 ng/µL	260 ng/µL	0 ng/µL	157 ng/µL
B6	442 ng/µL	44 ng/µL	429 ng/µL	38 ng/µL
B7	0 ng/µL	0 ng/µL	0 ng/µL	0 ng/µL
B8	725 ng/µL	491 ng/µL	0 ng/µL	279 ng/µL
B9	58 ng/µL	0 ng/µL	1020 ng/µL	19 ng/µL
B10	89 ng/µL	251 ng/µL	96 ng/µL	626 ng/µL
B11	451 ng/µL	405 ng/µL	78 ng/µL	531 ng/µL
B12	777 ng/µL	465 ng/µL	0 ng/µL	330 ng/µL
B13	882 ng/µL	518 ng/µL	0 ng/µL	355 ng/µL
B14	822 ng/µL	473 ng/µL	0 ng/µL	317 ng/µL
B15	582 ng/µL	435 ng/µL	39 ng/µL	635 ng/µL
B16	187 ng/µL	121 ng/µL	0 ng/µL	70 ng/µL
B17	608 ng/µL	355 ng/µL	0 ng/µL	252 ng/µL
